The supplement of paper PMC12042874
± gives the uncertainty stated by the source.

Assay: amyloid nucleation score (Sup35N fusion, yeast selection) (log enrichment); library NNK1; higher = more nucleation; inactive = no reads after selection
Method in brief: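 The nucleation score equals the log enrichment of output over input reads from DiMSum, centred on the mode score of non-aggregating sequences. It was computed only for sequences with 100 or more input reads. The reads came from Illumina sequencing of plasmid inserts from psi-negative yeast expressing Sup35N fused to peptides of 20 random codons, induced with 100 μM copper sulfate for 24 hours and grown 7 days at 30°C without adenine and uracil.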

| Substance | amyloid nucleation score |
| --- | --- |
| GNLSPSLCGHILLVTLIKGW | 0.291 ± 0.39 |
| GNSFISV | -0.088 ± 0.81 |
| GNSHMFIIAYSTYMLYTQTL | 0.845 ± 0.55 |
| GNSMSHASTVKVFLAQLGGD | -1.04 ± 2.1 |
| GNTVRYVKRMYY | -0.056 ± 0.5 |
| GNVKSTRWFESV | 0.72 ± 0.78 |
| GPGPCWKPITGGWRTRKFTR | 0.61 ± 0.56 |
| GPSRNGWFNATLGHTLLSNT | 0.638 ± 0.42 |
| GPVSGHRPIVRD | -0.179 ± 1.1 |
| GQAGGWTARGQSSDIDLGQR | -0.146 ± 0.63 |
| GQDAPEDAMSVRRILVSGLA | -0.109 ± 1.5 |
| GQIDGCGTRVNT | 2.17 ± 0.14 |
| GRCSKYCGFASATCMNGGVS | 0.032 ± 0.32 |
| GRFGVGVWW | 0.127 ± 0.46 |
| GRHSWINGYKVEV | 6.938 ± 0.055 |
| GRLFWVNVTLNLRDMNYSDM | 1.09 ± 0.5 |
| GRLGITSMMPLGCVINWPRG | 3.02 ± 0.13 |
| GRSCKFCYVTWVVPEP | 1.25 ± 0.2 |
| GRTHEEYF | 0.048 ± 1.2 |
| GRTVPDYLMVRSATNIRYGF | -1.19 ± 1.7 |
| GRYTYDTMFTGWGASDELHI | 1.14 ± 0.97 |

| Substance | amyloid nucleation score |
| --- | --- |
| GSCVWFSGNRVPTFWWSGDS | -0.046 ± 0.31 |
| GSDGVCFNKNLNSWIYMLST | 0.805 ± 0.64 |
| GSDTNSNRLIMLMFGTVFCA | 2.84 ± 0.16 |
| GSGYFDGVIFIYLT | -1.11 ± 1.1 |
| GSHWPYDGWWISYLWFHLR | 0.858 ± 0.38 |
| GSIPDCGIGICRYKLSGIMK | 0.047 ± 0.63 |
| GSLFYVRLLYRGCNTEITSK | 0.925 ± 1.1 |
| GSMLCGEVERMSECKESGGP | -0.354 ± 0.48 |
| GSMLLHLIILSILFFDRVES | 0.148 ± 0.29 |
| GSNFTKVCILPSLHRTLLVG | -0.222 ± 1.4 |
| GSNKRHSYTLVLSRNVYPSG | 0.014 ± 0.49 |
| GSPLWLVVPVPGEHVSSLSL | -0.047 ± 0.36 |
| GSRCRRLWDM | -0.02 ± 0.55 |
| GSRYLGTPFRDIMLHVAIRW | 1.08 ± 0.57 |
| GSSFI | 0.127 ± 0.57 |
| GSSFVI | inactive |
| GSSMLHSFSFGGPALVCCVF | 7.167 ± 0.055 |
| GSTDGKGVTQRNYVNSILYV | 0.472 ± 0.78 |
| GSWGVRVFHFFARSRP | 0.032 ± 0.79 |
| GTCFCFITVSLLLVPVVLSD | -1.02 ± 2.7 |
| GTCTMTKSFMIDIF | 0.235 ± 0.25 |

| Substance | amyloid nucleation score |
| --- | --- |
| GTFSGQKLCYVCVSLSGFG | 0.005 ± 0.5 |
| GTFSGRKEL | 0.463 ± 0.3 |
| GTGLVAMVAT | -1.24 ± 1.1 |
| GTGRVLVIAKALNYCCIS | 6.811 ± 0.054 |
| GTLFYTDPLLCIVYLINLCR | -0.33 ± 0.56 |
| GTSLRSGWRYCEFTRRSCLV | 0.068 ± 0.6 |
| GTSTHIIFGMAVSSVRRYHM | 1.33 ± 0.33 |
| GTTCGSLHRAWGLAKTGCNW | -0.388 ± 0.42 |
| GTTFIRLIYFVYMARTTTEF | -1.35 ± 1.1 |
| GTTLTDSVCYRGLNFPRLY | -0.435 ± 1.9 |
| GTYSKG | 0.7 ± 0.97 |
| GVCVNVKLLNWFKSRGTSSR | 1.91 ± 0.38 |
| GVDLVSAIYGTSGHTVWMAF | -0.054 ± 0.52 |
| GVEVAFDVLEETRQWPEYYR | 1.49 ± 0.49 |
| GVGMAPATLGPETHEKSELM | 0.282 ± 0.3 |
| GVGRGCYSMACCSAGRLTDG | -0.122 ± 0.85 |
| GVHSTEKNEWTQTFQSGR | -0.103 ± 0.98 |
| GVHYYHLASWTWISFLITRR | 0.424 ± 0.85 |
| GVLLLIQSGNCRWRRSSRAP | 0.344 ± 0.65 |
| GVLSIVVKSR | -2.2 ± 1.7 |
| GVMCIMYNFSHYYLSVVNNR | 7.77 ± 0.083 |
